Molecular target: reconstituted 26S proteasome with LD555 donor dye on Rpn9 (F2AzF) and LD655 acceptor dye on Rpt5 (Q49AzF), wild type (yeast | not stated | yeast (endogenous gene tagged in strain W303) | yeast (endogenous in W303)) (UniProt P33299)
Chain of UniProt P33299 (P33299 whole entry, looked up): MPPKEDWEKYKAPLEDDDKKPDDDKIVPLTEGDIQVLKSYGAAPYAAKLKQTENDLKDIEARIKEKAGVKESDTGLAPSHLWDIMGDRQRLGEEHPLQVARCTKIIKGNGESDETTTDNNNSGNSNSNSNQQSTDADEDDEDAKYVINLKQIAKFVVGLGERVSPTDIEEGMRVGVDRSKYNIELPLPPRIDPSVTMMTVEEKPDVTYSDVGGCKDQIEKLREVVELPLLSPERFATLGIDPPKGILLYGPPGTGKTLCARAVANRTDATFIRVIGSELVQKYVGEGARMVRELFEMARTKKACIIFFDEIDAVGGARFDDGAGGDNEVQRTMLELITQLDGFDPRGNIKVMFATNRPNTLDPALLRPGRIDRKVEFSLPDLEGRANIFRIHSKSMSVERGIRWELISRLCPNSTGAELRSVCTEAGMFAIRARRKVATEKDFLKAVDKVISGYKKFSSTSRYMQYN

Substance: unanchored K48-linked ubiquitin tetramer (from UniProt P0CG63 1-76)
- rate of the s1-to-non-s1 transition (ks1) of the substrate-free proteasome in the single-molecule FRET conformational dynamics assay; 1.2 s^-1 without chains: 0.4 s⁻¹

From paper PMC9788759
